Measured values: patent US20240052038A1 (IMMUNOBRAIN CHECKPOINT, published 2024)
Changes are numbered by the printed parent chain. In names and notes the source's numbering stands.

How the values were obtained:
[1] = target: T1, cynomolgus monkey PD-L1 on blood T lymphocytes (cynomolgus monkey, UniProt G7PSE7 19-290); test: receptor occupancy on blood T lymphocytes by flow cytometry, cynomolgus monkeys, up to day 12 after 13 mg/kg IV
T1 construct: also called PD-L1 receptor (cynomolgus T cells)
T1 sequence (G7PSE7 entry or part of it limits assumed): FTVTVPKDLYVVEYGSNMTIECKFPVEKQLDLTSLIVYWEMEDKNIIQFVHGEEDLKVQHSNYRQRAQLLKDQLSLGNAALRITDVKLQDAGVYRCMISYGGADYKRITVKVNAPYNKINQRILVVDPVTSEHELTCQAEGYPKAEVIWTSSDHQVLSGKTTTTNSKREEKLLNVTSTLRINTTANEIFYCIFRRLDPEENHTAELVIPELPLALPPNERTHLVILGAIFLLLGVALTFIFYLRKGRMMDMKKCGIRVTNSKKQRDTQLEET
Procedure: (§1) Blood (8 mL) for PBMC isolation was collected at least one day prior to dose and 5, 14, 21 and 30-days post-injection. […] All collected blood and serum samples were frozen for subsequent analysis. […] These antibodies came from a different expression system using transfected HEK cells. Blood (8 mL) for PBMC isolation was collected at least one day prior to dose and 5, 14, 21, 30 and 45-days post-injection. […] All collected blood and serum samples were frozen for subsequent analysis.
(§2) One day prior to dosing (baseline), and on 5, 14, 21, and 30-days post treatment, 8 mL of whole blood was collected for Peripheral Blood Mononuclear Cell (PBMC) isolation and cryopreservation. In the second study, whole blood was also collected also at 45-days post treatment. Samples were analyzed for PD-L1 receptor occupancy on blood T lymphocytes and for Immunophenotype of different immune cell subpopulations. The percentage of PD-L1 receptor occupancy on blood T-lymphocytes by the antibody was assessed using the same method as described above for receptor occupancy in mice.

[2] = target: T1, cynomolgus monkey PD-L1 on blood T …; test: receptor occupancy on blood T lymphocytes by flow cytometry, cynomolgus monkeys, day 20 after 13 mg/kg IV (antibody cleared)
Procedure: as §1, §2

human PD-L1 [3] = target: T2, human PD-L1 (human, UniProt Q9NZQ7 19-238, limits assumed); test: SPR
T2 construct: also called hPD-L1; Programmed Death-Ligand 1
T2 sequence (Q9NZQ7 19-238 limits assumed): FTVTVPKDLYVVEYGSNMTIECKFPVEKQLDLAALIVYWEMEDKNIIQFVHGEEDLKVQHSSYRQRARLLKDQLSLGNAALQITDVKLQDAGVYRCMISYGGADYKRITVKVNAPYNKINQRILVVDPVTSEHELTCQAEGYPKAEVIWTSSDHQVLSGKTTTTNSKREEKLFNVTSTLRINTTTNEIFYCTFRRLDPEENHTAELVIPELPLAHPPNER

cynomolgus monkey PD-L1 = cynomolgus monkey PD-L1 (cynomolgus monkey, UniProt G7PSE7 19-238); test: SPR
cynomolgus monkey PD-L1, sequence (G7PSE7 entry or part of it limits assumed): as the sequence (Q9NZQ7 19-238 limits assumed) above, with A33T, A34S, S62N, R68Q, Q82R, F173L, T185A, T192I, H215L counted along it

human PD-L1 [4] = target: T2, human PD-L1; test: SPR, kinetics

B1: Variant 1-G09 (Fc effector null) (antibody, human IgG1, kappa, L234A L235A)
heavy: EVQLVESGGGLVQPGRSLRLSCAASGFTFDDYAMHWVRQTPGKGLEWVSGISWKSNIIGYADSVKGRFTISRDNAKNSLYLQMNSLRAEDTALYYCARDITGSGSYGWFDPWGQGTLVTVSSASTKGPSVFPLAPSSKSTSGGTAALGCLVKDYFPEPVTVSWNSGALTSGVHTFPAVLQSSGLYSLSSVVTVPSSSLGTQTYICNVNHKPSNTKVDKRVEPKSCDKTHTCPPCPAPEAAGGPSVFLFPPKPKDTLMISRTPEVTCVVVDVSHEDPEVKFNWYVDGVEVHNAKTKPREEQYNSTYRVVSVLTVLHQDWLNGKEYKCAVSNKALPAPIEKTISKAKGQPREPQVYTLPPSREEMTKNQVSLTCLVKGFYPSDIAVEWESNGQPENNYKTTPPVLDSDGSFFLYSKLTVDKSRWQQGNVFSCSVMHEALHNHYTQKSLSLSPG
light: DIQMTQSPSSLSASVGDRVTITCRASQSISSYLNWYQQKPGKAPKPLIYVASSLQSGVPSSFSGSGSGTDFTLTISSLQPEDFATYYCQQSYSNPITFGQGTRLEIKRTVAAPSVFIFPPSDEQLKSGTASVVCLLNNFYPREAKVQWKVDNALQSGNSQESVTEQDSKDSTYSLSSTLTLSKADYEKHKVYACEVTHQGLSSPVTKSFNRGEC
notes: Human IgG1 with L239A, L240A, K327A; kappa light chain; also called null mutant
receptor occupancy [1]: > 80%

B2: Variant 4-G09 (Fc effector null-H315A + H440Q) (antibody, human IgG1, kappa, L234A L235A)
heavy: B1 heavy with H315A, H440Q
light: B1 light
notes: Human IgG1 with L239A, L240A, K327A, H315A and H440Q; kappa light chain; also called double mutant
receptor occupancy [2]: < 20%

B3: Variant 3-G09 (Fc effector null-H440Q) (antibody, human IgG1, kappa, L234A L235A)
heavy: B1 heavy with H440Q
light: B1 light
notes: Human IgG1 with L239A, L240A, K327A and H440Q; kappa light chain
receptor occupancy [1]: > 80%
receptor occupancy [2]: < 20%

B4: Variant 2-G09 (Fc effector null-H315A) (antibody, human IgG1, kappa, L234A L235A)
heavy: B1 heavy with H315A
light: B1 light
notes: Human IgG1 with L239A, L240A, K327A and H315A; kappa light chain
receptor occupancy [1]: > 80%
receptor occupancy [2]: < 20%

B5: human anti-PD-L1 monoclonal antibody 84G09 (antibody, V domains shown)
VH: EVQLVESGGGLVQPGRSLRLSCAASGFTFDDYAMHWVRQTPGKGLEWVSGISWKSNIIGYADSVKGRFTISRDNAKNSLYLQMNSLRAEDTALYYCARDITGSGSYGWFDPWGQGTLVTVSS
VL: DIQMTQSPSSLSASVGDRVTITCRASQSISSYLNWYQQKPGKAPKPLIYVASSLQSGVPSSFSGSGSGTDFTLTISSLQPEDFATYYCQQSYSNPITFGQGTRLEIK
notes: also called anti-human PD-L1 antibody (clone 84G09)
Kd (human PD-L1 [3]): 430 pM
Kd (cynomolgus monkey PD-L1): 520 pM
Kd (human PD-L1 [4]): 400 pM
